Data taken from patent US20220017612A1 (TILOS THERAPEUTICS, published 2022).
Residue numbers refer to the chain shown, from its start. In names and notes the source's numbering stands.

B1: 22F9_H5L0 (antibody, human IgG1, kappa)
heavy: not shown
light: DIQLTQSPSSLSASVGDRVTITCRASKSVSTSGYSYMHWYQQKPGKAPKLLIYLASNLESGVPSRFSGSGSGTDFTLTISSLQPEDFATYYCQHSRELPYTFGGGTKVEIKRTVAAPSVFIFPPSDEQLKSGTASVVCLLNNFYPREAKVQWKVDNALQSGNSQESVTEQDSKDSTYSLSSTLTLSKADYEKHKVYACEVTHQGLSSPVTKSFNRGEC
B2: 22F9_H4L0 (antibody, human IgG1, kappa)
heavy: not shown
light: B1 light
B3: 22F9_H5L2 (antibody, human IgG1, kappa)
heavy: not shown
light: B1 light with A13V, V19A, A47P, D74H, L82V, V108L
B4: 22F9_H3L0 (antibody, human IgG1, kappa, V domains shown)
VH: QVQLVQSGAEVKKPGASVKVSCKASGYTFTSYWMHWVRQAPGQGLEWIGMIHPNSGSTNYNEKFKSRVTLTVDKSSSTAYMELSSLRSEDTAVYYCAYYDYDGFFDVWGQGTLVTVSS
VL: DIQLTQSPSSLSASVGDRVTITCRASKSVSTSGYSYMHWYQQKPGKAPKLLIYLASNLESGVPSRFSGSGSGTDFTLTISSLQPEDFATYYCQHSRELPYTFGGGTKVEIKR
B5: 22F9_H5L1 (antibody, human IgG1, kappa)
heavy: not shown
light: B1 light with A47P, D74H
B6: 22F9_H4L2 (antibody, human IgG1, kappa)
heavy: not shown
light: B1 light with A13V, V19A, A47P, D74H, L82V, V108L
B7: 28G11_mIgG2a (antibody, V domains shown)
VH: EVKLVESGGGLVQPGGSLSLSCAASGFTFTDYYMSWVRQPPGKALEWLGFIRNKPNGYTTEYSASVKGRFTISRDNSQSILYLQMNVLRAEDSATYYCARYTGGGYFDYWGQGTTLTVSS
VL: DIQMTQTTSSLSASLGDRLTISCRASQDISNYLNWYQQKPDGTVKLLIYYTSRLHSGVPSRFSGSGSGTDYSLTISNLEQADIATYFCQQGDTLPWTFGGGTKLEIK
B8: 20E6_H2L1 (antibody, human IgG1, kappa, V domains shown)
VH: QVQLVQSGAEVKKPGASVKVSCKASGYTFTSYWMHWVRQAPGQGLEWIGRIDPNSGGIKYNEKFKSRVTLTVDKSSSTAYMELSRLRSDDTAVYYCARWDYGGYFDVWGQGTLVTVSS
VL: DIQMTQSPSSLSASVGDRVTITCRASQDITNYLNWYQQKPGKAVKLLIYYTSRLHSGVPSRFSGSGSGTDYTLTISSLQPEDFATYFCQQGDTLPWTFGQGTKLEIKR
B9: 20E6_H1L1 (antibody, human IgG1, kappa, V domains shown)
VH: B8 VH with K74T, S76I
VL: B8 VL
B10: 20E6_H4L1 (antibody, human IgG1, kappa)
heavy: not shown
light: DIQMTQSPSSLSASVGDRVTITCRASQDITNYLNWYQQKPGKAVKLLIYYTSRLHSGVPSRFSGSGSGTDYTLTISSLQPEDFATYFCQQGDTLPWTFGQGTKLEIKRTVAAPSVFIFPPSDEQLKSGTASVVCLLNNFYPREAKVQWKVDNALQSGNSQESVTEQDSKDSTYSLSSTLTLSKADYEKHKVYACEVTHQGLSSPVTKSFNRGEC
B11: 20E6_H0L1 (antibody, human IgG1, kappa, V domains shown)
VH: B8 VH with I48M, L70M, V72R, K74T, S76I
VL: B8 VL
B12: 20E6_H3L1 (antibody, human IgG1, kappa)
heavy: not shown
light: B10 light
B13: H0L0 (antibody, human IgG1, kappa, V domains shown)
VH: B4 VH with I48M, L70M, V72R, K74T, S76T, A79V, Y98R
VL: B4 VL
notes: also called 22F9_H0L0
B14: H1L2 (antibody, human IgG1, kappa, V domains shown)
VH: B4 VH with L70M, K74T, S76T, A79V
VL: B4 VL with A13V, V19A, A47P, D74H, L82V, V108L
notes: also called 22F9_H1L2
B15: H0L1 (antibody, human IgG1, kappa, V domains shown)
VH: B4 VH with I48M, L70M, V72R, K74T, S76T, A79V, Y98R
VL: B4 VL with A47P, D74H
notes: also called 22F9_H0L1
B16: H0L2 (antibody, human IgG1, kappa, V domains shown)
VH: B4 VH with I48M, L70M, V72R, K74T, S76T, A79V, Y98R
VL: B4 VL with A13V, V19A, A47P, D74H, L82V, V108L
notes: also called 22F9_H0L2
B17: 22F9_H2L1 (antibody, human IgG1, kappa, V domains shown)
VH: B4 VH with K74T, S76T
VL: B4 VL with A47P, D74H
B18: 22F9_H3L1 (antibody, human IgG1, kappa, V domains shown)
VH: B4 VH
VL: B4 VL with A47P, D74H
B19: 22F9_H2L0 (antibody, human IgG1, kappa, V domains shown)
VH: B4 VH with K74T, S76T
VL: B4 VL
B20: T30S_Y71F (antibody, human IgG1, kappa, V domains shown)
VH: EVQLVESGGGLVQPGGSLRLSCAASGFTFSDYYMSWVRQAPGKGLEWLGFIRNKPNGYTTEYSASVKGRFTISRDNSQSSLYLQMNSLKTEDTAVYYCARYTGGGYFDYWGQGTLLTVSS
VL: B8 VL with V19L, T22S, T30S, A43T, Y71F, F83V
notes: also called 28G11_H2L3 with HC T30S and LC Y71F

Biological target: T1, fusion protein of a human IgG1 Fc domain and human LAP-TGFβ1 (human, UniProt P01137 30-390)
T1 construct: printed both as Fc-huB1 and LAP-TGFβ-Fc; also called Fc-huB1; Fc-human LAP
Test: BLI, antibody on tip, 1:1 model
Protocol: (§1) Binding to human TGFβ1 of a subset of candidates was also tested by bio-layer interferometry (Octet). A streptavidin coated tip was equilibrated for 60 seconds in binding buffer (10 mM sodium phosphate, 150 mM sodium chloride, 1% bovine serum albumin, 0.05% sodium azide). The tip was then dipped in 10 μg/mL biotinylated antibody in binding buffer. After 15 seconds, the tip was washed in binding buffer for 60 seconds, and then dipped in 0-24 nM Fc-human LAP. Analyte association was measured for 5 minutes. The tip was transferred to binding buffer alone, and analyte dissociation was measured for 5 minutes. The association and dissociation data were fit to a 1:1 binding model.

T1 sequence (P01137 30-390 limits assumed): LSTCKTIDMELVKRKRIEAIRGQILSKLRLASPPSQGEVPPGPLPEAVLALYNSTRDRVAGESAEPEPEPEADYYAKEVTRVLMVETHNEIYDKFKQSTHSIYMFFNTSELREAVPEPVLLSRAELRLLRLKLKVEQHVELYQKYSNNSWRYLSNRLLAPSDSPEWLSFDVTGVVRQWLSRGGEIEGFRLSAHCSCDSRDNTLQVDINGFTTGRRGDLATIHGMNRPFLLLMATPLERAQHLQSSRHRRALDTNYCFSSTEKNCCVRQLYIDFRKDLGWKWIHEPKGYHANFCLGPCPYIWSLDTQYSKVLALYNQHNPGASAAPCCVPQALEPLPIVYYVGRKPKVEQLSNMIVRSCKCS

Kd [nM]	koff [s⁻¹]	kon [M⁻¹ s⁻¹]	Binder
3.35	0.0017	510000	B1
1.63	0.00132	810000	B2
3.91	0.00246	629000	B3
2.75	0.00214	778000	B4
2.34	0.00122	519000	B5
2.3	0.00137	598000	B6

Biological target: T2, human LAP-TGFβ1 overexpressed on cells (human, UniProt P01137 30-390)
Test: cell-based or functional assay

T2 sequence (P01137 30-390): as the sequence (P01137 30-390 limits assumed) above

IC50 of inhibition of TGFβ1 activation [µg/mL]	Binder
1.6	B7

Biological target: murine LAP-TGFβ1 overexpressed on cells (mouse, UniProt P04202 30-390)
Test: cell-based or functional assay

Chain of murine LAP-TGFβ1 overexpressed on cells (P04202 30-390): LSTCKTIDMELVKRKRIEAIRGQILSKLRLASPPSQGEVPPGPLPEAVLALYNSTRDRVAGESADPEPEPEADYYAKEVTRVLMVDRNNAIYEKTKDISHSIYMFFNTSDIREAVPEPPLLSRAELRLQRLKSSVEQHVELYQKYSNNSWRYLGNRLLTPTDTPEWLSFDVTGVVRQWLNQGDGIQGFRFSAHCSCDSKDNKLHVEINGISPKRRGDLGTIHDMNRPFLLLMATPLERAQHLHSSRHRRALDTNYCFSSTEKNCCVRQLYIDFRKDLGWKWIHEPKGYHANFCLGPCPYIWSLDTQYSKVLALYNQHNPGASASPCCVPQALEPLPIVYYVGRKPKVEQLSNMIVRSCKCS

IC50 of inhibition of TGFβ1 activation [µg/mL]	Binder
0.8	B7

Biological target: T1, fusion protein of a human IgG1 Fc …
Test: BLI (Octet)

Kd [nM]	koff [s⁻¹]	kon [M⁻¹ s⁻¹]	Binder
0.48	0.000747	1.57e+06	B8
0.48	0.000677	1.41e+06	B9
0.47	0.000729	1.56e+06	B10
0.51	0.000814	1.59e+06	B11
0.47	0.000702	1.48e+06	B12

Biological target: T2, human LAP-TGFβ1 overexpressed on cells
Test: flow cytometry; black bar HT1080-huB1, grey bar HT1080
Protocol: First, the ability of 22F9H0L0, HILO, H2L0, H3L0, H4L0, H5L0, H0L1, H1L1, H2L1, H3L1, H4L1, H5L1, H0L2, H1L2, H2L2, H3L3, H4L2, and H5L2 to bind to HT1080 cells overexpressing human TGFβ1 was tested by flow cytometry. HT1080 cells over-expressing human LAP-TGFβ1 were placed in a round-bottom 96-well plate at density of 40,000 cells/well. The cells were washed with FACS buffer (25 mM HEPES, 2 mM EDTA, 2% fetal bovine serum in Hank's Balanced Salt Solution). 50 μL of 1:200 diluted TruStain Human FcX (BioLegend) was added to each well, followed by 50 μL of 100 ng/μL of humanized 22F9 construct. The antibody was allowed to bind for 20 minutes. The cells were washed twice with FACS buffer. The cells were labeled for 15 minutes with Alexa647-anti Human IgG (Jackson Immunoresearch), washed twice with FACS buffer, and analyzed by flow cytometry.

Binder	binding result
B13	no binding (tested: single dose, 50 µL of 100 ng/µL)
B14	no binding (tested: single dose, 50 µL of 100 ng/µL)
B15	no binding (tested: single dose, 50 µL of 100 ng/µL)
B16	no binding (tested: single dose, 50 µL of 100 ng/µL)
B17	binds
B18	binds
B19	binds

Biological target: T1, fusion protein of a human IgG1 Fc …
Test: BLI, signal change on binding
Protocol: as §1

Binding (nm)	Binder
0.13	B1
0.057	B2
0.06	B3
0.023	B4
0.08	B5
0.07	B6

Biological target: T2, human LAP-TGFβ1 overexpressed on cells
Test: flow cytometry; black bar HT1080-huB1, grey bar HT1080
Remark: another data set of the same source

binding result	Binder
no binding	B20
